What all share (assay type): biochemical
Series [1] is described as follows: 4-MUL cellobiose tolerance/inhibition assay, dose-response IC50 (Example 2). In a few lines: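 CBH I variant supernatants (5 μg/mL final, or undiluted if lower) on 0.5 mM 4-MUL in 100 mM MES pH 6 with 25 mM gluconolactone, fluorescence ex/em 365/450 nm. Activity measured at 6–8 cellobiose levels up to 100 mM; IC50 from four-parameter fit, bottom constrained to knockout background.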

A short description of series [2]: Saccharification assay (bagasse assay) with and without β-glucosidase (Example 1). To be noted: T. reesei CBH I variants; activity without β-glucosidase (BG) relative to with BG. The procedure:
This assay measures the activity of CBH I on bagasse, a lignocellulosic substrate. Reactions were run in 10 ml vials with 5% dilute acid pretreated bagasse (250 mg solids per 5 ml reaction). Each reaction contained 4 mg CBH I enzyme/g solids, 200 mM MES pH 6, kanamycin, and chloramphenicol. Reactions were incubated at 35° C. in hybridization incubators (Robbins Scientific), rotating at 20 RPM. Time points were taken by transferring a sample of homogenous slurry (150 μl) into a 96-well deep well plate and quenching the reaction with stop buffer (450 μl of 500 mM sodium carbonate, pH 10). Time point measurements were taken every 24 hours for 72 hours.
(§1) Tolerance to cellobiose (or inhibition caused by cellobiose) was tested in two ways in the CBH I assays. A direct-dose tolerance method can be applied to all of the CBH I assays (i.e., 4-MUL, PASC, and/or bagasse assays), and entails the exogenous addition of a known amount of cellobiose into assay mixtures. A different indirect method entails the addition of an excess amount of β-glucosidase (BG) to PASC and bagasse assays (typically, 1 mg β-glucosidase/g solids loaded). BG will enzymatically hydrolyze the cellobiose generated during these assays; therefore, CBH I activity in the presence of BG can be taken as a measure of activity in the absence of cellobiose. Furthermore, when activity in the presence and absence of BG are similar, this indicates tolerance to cellobiose.

Series [3] is described as follows: PASC assay, cellobiose dose-response (Example 1). To be noted: FIG. 3. The procedure: This assay measures the activity of CBH I using PASC as the substrate. During the assay, the concentration of PASC is monitored by a fluorescent signal derived from calcofluor binding to PASC (ex/em 365/440 nm). The assay is initiated by mixing enzyme (15 μl) and reaction buffer (85 μl of 0.2% PASC, 200 mM MES, pH 6), and then incubating at 35° C. while shaking at 225 RPM. After 2 hours, one reaction volume of calcofluor stop solution (100 μg/ml in 500 mM glycine pH 10) is added and fluorescence read-outs obtained (ex/em 365/440 nm).
as §1

A short description of series [4]: 4-MUL assay with and without cellobiose (Example 1).
Where [5] appears, read: Secondary screening, CBH I levels normalized to 5 μg/mL, cellobiose range 0.00085-100 mM, read-out: IC50.
[6] abbreviates: secondary screening, CBH I levels normalized to 5 μg/mL, cellobiose range 0.0001-100 mM, read-out: Average IC50.

Residue numbers refer to the chain shown, from its start. Names may count otherwise. Read-outs that look alike come from different tables or passages of the source.

B1: 411A: CBH I variant with site 411 mutated to alanine (protein, listed as Trichoderma reesei)
chain: QSACTLQSETHPPLTWQKCSSGGTCTQQTGSVVIDANWRWTHATNSSTNCYDGNTWSSTLCPDNETCAKNCCLDGAAYASTYGVTTSGNSLSIGFVTQSAQKNVGARLYLMASDTTYQEFTLLGNEFSFDVDVSQLPCGLNGALYFVSMDADGGVSKYPTNTAGAKYGTGYCDSQCPRDLKFINGQANVEGWEPSSNNANTGIGGHGSCCSEMDIWEANSISEALTPHPCTTVGQEICEGDGCGGTYSDNRYGGTCDPDGCDWNPYRLGNTSFYGPGSSFTLDTTKKLTVVTQFETSGAINRYYVQNGVTFQQPNAELGSYSGNELNDDYCTAEEAEFGGSSFSDKGGLTQFKKATSGGMVLVMSLWDDYYANMLWLDSTYPTNETSSTPGAVAGSCSTSSGVPAQVESQSPNAKVTFSNIKFGPIGSTGNPSGGNPPGGNPPGTTTTRRPATTTGSSPGPTQSHYGQCGGIGYSGPTVCASGTTCQVLNPYYSQCL
As to B1, the half-maximal inhibitory concentration (IC50) (in general, the point on the concentration scale where inhibition reaches its midpoint) in series [1] (setting [5]) stood at 1060 µM; in series [1] (averaged IC50 values from Tables 8-11, read-out: measured IC50 of cellobiose (merged values)), 1170 µM; in series [1] (setting [6]), 918 µM. Moreover, in series [2], the “Tolerance to cellobiose accumulation % Activity in Bagasse Assay (+/−BG)” value is reported as 94%.

B2: R268A: T. reesei CBH I with an R268A substitution (protein, listed as Trichoderma reesei)
chain: B1 chain with R251A, A394R
Turning to B2, the concentration for half-maximal inhibition (IC50) in series [1] (setting [5]) came out at 574 µM; in series [1] (setting [6]), 423 µM. Further, the “Tolerance to cellobiose accumulation % Activity in Bagasse Assay (+/−BG)” value in series [2] is 86%.

B3: wild type T. reesei CBH I: wild type T. reesei CBH I (SEQ ID NO:2) (protein, listed as Trichoderma reesei)
chain: MYRKLAVISAFLATARAQSACTLQSETHPPLTWQKCSSGGTCTQQTGSVVIDANWRWTHATNSSTNCYDGNTWSSTLCPDNETCAKNCCLDGAAYASTYGVTTSGNSLSIGFVTQSAQKNVGARLYLMASDTTYQEFTLLGNEFSFDVDVSQLPCGLNGALYFVSMDADGGVSKYPTNTAGAKYGTGYCDSQCPRDLKFINGQANVEGWEPSSNNANTGIGGHGSCCSEMDIWEANSISEALTPHPCTTVGQEICEGDGCGGTYSDNRYGGTCDPDGCDWNPYRLGNTSFYGPGSSFTLDTTKKLTVVTQFETSGAINRYYVQNGVTFQQPNAELGSYSGNELNDDYCTAEEAEFGGSSFSDKGGLTQFKKATSGGMVLVMSLWDDYYANMLWLDSTYPTNETSSTPGAVRGSCSTSSGVPAQVESQSPNAKVTFSNIKFGPIGSTGNPSGGNPPGGNPPGTTTTRRPATTTGSSPGPTQSHYGQCGGIGYSGPTVCASGTTCQVLNPYYSQCL
As for B3, in series [3], the “IC50 of cellobiose (PASC assay)” value turned out to be 3 g/L and the “cellobiose concentration at which inhibition starts (PASC assay)” value is “around 1 g/L”. In addition, in series [4] (T. reesei CBH I and R268/R411 variants, 250 mg/L cellobiose), the “% activity remaining in 4-MUL assay in the presence of cellobiose” value is recorded as 23%.

B4: R268K: T. reesei CBH I with an R268K substitution (protein, listed as Trichoderma reesei)
chain: B3 chain with R268K
As for B4, the values for the IC50 in series [1] (setting [5]) and in series [1] (setting [6]) were 134 µM and 93 µM, respectively. Besides, the “Tolerance to cellobiose accumulation % Activity in Bagasse Assay (+/−BG)” value in series [2] is listed as 92%.

B5: R268A/R411K: T. reesei CBH I with R268A and R411K substitutions (protein, UniProt P62694 18-513, looked up, variant R268A R411K)
Exoglucanase 1: QSACTLQSETHPPLTWQKCSSGGTCTQQTGSVVIDANWRWTHATNSSTNCYDGNTWSSTLCPDNETCAKNCCLDGAAYASTYGVTTSGNSLSIGFVTQSAQKNVGARLYLMASDTTYQEFTLLGNEFSFDVDVSQLPCGLNGALYFVSMDADGGVSKYPTNTAGAKYGTGYCDSQCPRDLKFINGQANVEGWEPSSNNANTGIGGHGSCCSEMDIWEANSISEALTPHPCTTVGQEICEGDGCGGTYSDNAYGGTCDPDGCDWNPYRLGNTSFYGPGSSFTLDTTKKLTVVTQFETSGAINRYYVQNGVTFQQPNAELGSYSGNELNDDYCTAEEAEFGGSSFSDKGGLTQFKKATSGGMVLVMSLWDDYYANMLWLDSTYPTNETSSTPGAVKGSCSTSSGVPAQVESQSPNAKVTFSNIKFGPIGSTGNPSGGNPPGGNRGTTTTRRPATTTGSSPGPTQSHYGQCGGIGYSGPTVCASGTTCQVLNPYYSQCL
Turning to B5, the “Tolerance to cellobiose accumulation % Activity in Bagasse Assay (+/−BG)” value in series [2] is listed as 94%. The “Tolerance to 250 mg/L cellobiose % Activity in 4-MUL Assay (+/−Cellobiose)” value in series [4] (T. reesei CBH I variants, activity with 250 mg/L cellobiose relative to without cellobiose) amounted to 97%.

B6: R411K: T. reesei CBH I with an R411K substitution (protein, UniProt P62694 18-513, looked up, variant R411K)
Exoglucanase 1: B5 Exoglucanase 1 with A251R
Turning to B6, the half-inhibitory concentration (IC50) in series [1] (setting [5]) was found to be 3060 µM; in series [1] (setting [6]), 2080 µM. Besides, the “Tolerance to cellobiose accumulation % Activity in Bagasse Assay (+/−BG)” value in series [2] turned out to be 89%.

(Values after patent US20140287471A1, “VARIANT CBH I POLYPEPTIDES WITH REDUCED PRODUCT INHIBITION” (BP CORPORATION NORTN AMERICA INC., priority 2011, published 2014).)
